Measured values reported in the supplement of paper PMC9170038.

What was measured:
MS2 coat protein [1] = test: apparent KD of MS2 coat protein; higher = weaker reporter binding; conditions: Eterna round: R107
Protocol: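 RNA-MaP round R107: designed RNA switches with theophylline, tryptophan, arginine or FMN aptamers are transcribed on-chip within common flanks. They are titrated with SNAP-549-labelled MS2 coat protein in RNA-MaP buffer (100 mM Tris pH 7.5, 80 mM KCl, 4 mM MgCl2), without ligand or with the indicated ligand. Median apparent KD per design.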

MS2 coat protein [2] = test: apparent KD of MS2 coat protein; designed switch direction (-1 OFF switch, 1 ON switch): 1; higher = weaker reporter binding
Procedure, shortened: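 For each design, the apparent KD is the median over clusters of curves fitted to normalised cluster fluorescence. Clusters held RNA switches with common flanks, transcribed on Illumina chips by stalled E. coli RNA polymerase. These were titrated with SNAP-549-labelled MS2 coat protein, doubling from 0.7 or 1.5 nM to 3 µM, without input, with 200 uM small-molecule ligand, or with an oligonucleotide input.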

[3] = input ligand: theophylline 20 uM
[4] = input ligand: theophylline 2 mM
[5] = input ligand: tryptophan 2.4 mM
[6] = input ligand: microRNA oligo, concentration not stated

| Sequence | apparent KD of MS2 coat protein (MS2 coat protein [1]; input ligand: arginine 13.2 mM) [nM] | apparent KD of MS2 coat protein (MS2 coat protein [1]; input ligand: none) [nM] | apparent KD of MS2 coat protein (MS2 coat protein [1]; [3]) [nM] | apparent KD of MS2 coat protein (MS2 coat protein [1]; [4]) [nM] | apparent KD of MS2 coat protein (MS2 coat protein [1]; [5]) [nM] | further results |
| --- | --- | --- | --- | --- | --- | --- |
| UGACAUGAGGAUCACCCAUGUUUAGAUGAACGAGGACCGGUACGGCCGCCACUCGAUAAGUGGAAAGAGCGAGGGAUCGCAUGCU [Same State Trp A GF5] | 12.1 | 12.9 | 17.5 | 12.9 | 14.4 |  |
| UACAUGAGGAUCACCCAUGUAUAGAGGGAUACCAGUGUCAGUGAGCACCCUUGGCAGCCCGCGAACAAUGGGUGCGCUAUAUAGU [#20 Exclusion-TheophyllineA] | 18.2 |  | 46.8 |  | 28 |  |
| AAUAAUAAGGCGGCCGCCACUAAACAUGAGGAUCACCCAUGUCUCGAGCGCUUGCGUUUGGGAAGUAGGACCGGGCCAAUAAUAA [Exclusion - Tryptophan B (Freestyle 5)] | 14.2 | 14.5 | 16.4 | 18.1 | 14.2 |  |
| GCACAUGAGGAUCACCCAUGUACAACUGAAGGAGCGAGACAGAACUCAGGUAGGUCGCAGAAUGCACAAUAGCAUACGACAUGGG [Exclusion Arginine A GF20] | 20.2 | 20.8 | 52.1 | 23.8 | 24.2 |  |
| AGAUAACAUGGUUUAAUAAGUUAAACUGAUACCAGUGUAUAUAAUCACCCUUGGCAGCAGCAACAUGAGGAUCACCCAUGUAAUA [JR_SSTheophyA_Sub013] | 16.2 |  | 19.9 |  | 19.6 |  |
| UGUAUGGACUGAAGGAGCGCCUCAAAUAACAUGAGGAUCACCCAUGUGGACAAAGUCCUUGGGCAGGUAGGUCGCAGUCCAUACU [ArgBX 5 #StaticStem #MS2Late] | 49.1 | 72.4 | 82.9 | 92.3 | 82.2 |  |
| UGUAUGUGAUCUGAUACCAGAGUGAAUAACCUGAGGAUCACCCUGGUAAGGCGAAAGCCACUCCCUUGGCAGCAGAUCGCAUACU | 121 | 136 | 100 | 26.6 | 136 |  |
| CGGUUUGUGAUGGAUACCAGCAGAGAAAACGUUUAUCCUAACAUGAGGAUCACCCAUGUAUGCCCUUGGCAGCUGUUGUGGGCUG [8.U] | 34.5 |  | 60.3 |  | 43.5 |  |
| UUAGCACAUGAGGAUCACCCAUGUCUCGAUACCAGAUAAGUUCCGAUCCCUUGGCAGCGACAAGCUUGCAAACUGCGACUAUUCU [theeternabot_sameState_MS2_Theo_A_42] | 22.2 |  | 32.2 |  | 24.8 |  |
| AUGUCAUUGGUGUAGCUGUGAAAUGGCGAUACCAGCGUGGAAACACGCCCUUGGCAGCGCCAAAACAUGAGGAUCACCCAUGUUA [Pardubice] | 36.2 |  | 135 |  | 80 |  |
| GACCACAUGAGGAUCACCCAUGUCUUGGUCCGAGGACCGGUACGGCCGCCACUCGAGAGCCGUACAAAUAAACGGAGUGCCAUCA [theeternabot_sameState_MS2_Trp_A_31] | 12.5 |  | 19.6 | 15.5 |  |  |
| UCCUCCUCCGCAAGGAGGAGGAGUUGCGAUACCAGCACGGAAACGUGCCCUUGGCAGCGCACAUGAGGAUCACCCAUGUCAUGUU [#1 Exclusion - Theophylline A Attempt #9 (HarryS)] | 18.7 |  | 23.8 |  | 16.3 |  |
| AUAUGGCGAGAUGAUACCAGACACAUGAGGAUCACCCAUGUUGAUGGUAAGUCUGCAUAUGUCCCUUGGCAGCAUAGCGACAUAU [X-TheoB-ms2@23] | 8.63 |  | 11.9 |  | 8.34 |  |
| UGACGAUACCUGGAUACCAGCGACAUGAGGAUCACCCAUGUAUGAGGAUCAGCCAUGUUAUGCCCUUGGCAGCCACGAAGGUCUU [CSCMULLIN] | 28.9 |  | 55.4 |  | 33.1 |  |
| GCGUGUUAUAGUCAUCGUGAGCGUCCAUCCCGAGGACCGGUACGGCCGCCACUCGCCACAGGACAUGAGGAUCACCCAUGUUAUG [theeternabot_exclusion_MS2_Trp_A_3] | 9.62 |  | 16.8 | 13.8 |  |  |
| UCGCUCUGGGUGAAUCCCAGAGAUGUGGAAGGAGCGGACGAAAGUCCAGGUAGGUCGCCAUCGAACAUGAGGAUCACCCAUGUAC [Same State - Arginine A (Freestyle 26)] | 42.7 | 46 | 77.5 | 75.6 | 46.2 |  |
| GACAUGAGGAUCACCCAUGUACCGCGAGAAGGAGCGCGGAUAAACGCAGGUAGGUCGCUCGUGGGCUUGUAUUCAAUCGUAAGCU [Anlaaranan] | 48.2 | 108 | 187 | 207 | 80.7 |  |
| AGGUAUGAUCCGGAUACCAGCGAACAUGAGGAUCACCCAUGUGACCUGAGAUAGGCUCUACGCCCUUGGCAGCCGCGAUCGCAGA [Same State Theophylline B GF11] | 10.1 | 11.4 | 14.2 | 9.63 | 12.5 |  |
| UAAUAAAUAAAUCCAAGGUGUAGGUCAGAUACCAGCCAGAUAACUGGCCCUUGGCAGCUGAAUAAACCUGAGGAACACCCAGGUA [TheoAS 24 #OpenEnded #MS2Late #AlternativeMS2] | 26.7 | 31.6 | 49.5 | 197 | 27.3 |  |
| GGUAUGUAUUCGGAAACGAAUGCAUACCAACGAGGACCGGUACGGCCGCCACUCGGGCCGUGAUCACAUGAGGAUCACCCAUGUA [Ex Tryptophan A 5] | 29.8 |  | 49.2 | 42.3 |  |  |
| AGACUACAACCUCGAACAUGAGGAUCACCCAUGUAAAGAUCCAAGGAUAUGGACAGGCCGAGCUACCAGAAGGUGGAAAGAGCC [Eternabot solution 7] (Eterna round: R96, puzzle: Same State NG 3) |  |  |  |  |  | apparent KD of MS2 coat protein (MS2 coat protein [2]; input ligand: FMN 200 uM): 40.9 nM; apparent KD of MS2 coat protein (MS2 coat protein [2]; [6]): 38.4 nM; apparent KD of MS2 coat protein (MS2 coat protein [2]; input ligand: none): 69.8 nM |
| AUAGUUUCCGAAGGAUAUGAUGAGGAUCACCCAUCAGAAGGUUGGCUAUUGGGUGGACAUGAGGAUCACCCAUGUCUUUCUGUU (Eterna round: R96, puzzle: Same State NG 1) |  |  |  |  |  | apparent KD of MS2 coat protein (MS2 coat protein [2]; input ligand: FMN 200 uM): 29.7 nM; apparent KD of MS2 coat protein (MS2 coat protein [2]; [6]): 39.1 nM; apparent KD of MS2 coat protein (MS2 coat protein [2]; input ligand: none): 53.6 nM |
| UUGAAGAAUUAAGGAUAUUGAGUACAUAUGUUUAACAUGAGGAUCACCCAUGUGGGUUGCGGUAUCGAGAAGGUAAAAUACUAG [Mat - same State NG 2 - JL mod - D73] (Eterna round: R96, puzzle: Same State NG 2) |  |  |  |  |  | apparent KD of MS2 coat protein (MS2 coat protein [2]; input ligand: FMN 200 uM): 156 nM; apparent KD of MS2 coat protein (MS2 coat protein [2]; [6]): 126 nM; apparent KD of MS2 coat protein (MS2 coat protein [2]; input ligand: none): 87.9 nM |
| UUCCCAUCGGGAGGAUAUGGUUCCUUAUUGGUUCUAGAAGGUCCAACAUGAGGAUCACCCAUGUGGGAGUGGUCUAAUGACCUC [SS NG10LRO05] (Eterna round: R96, puzzle: Same State NG 1) |  |  |  |  |  | apparent KD of MS2 coat protein (MS2 coat protein [2]; input ligand: FMN 200 uM): 889 nM; apparent KD of MS2 coat protein (MS2 coat protein [2]; [6]): 256 nM; apparent KD of MS2 coat protein (MS2 coat protein [2]; input ligand: none): 702 nM |
| UGUUGUAUUACAGGAUAUCUAGUAUUAUUAUUUAGAGAAGGGUAUUCACAUGAGGAUCACCCAUGUAUAUACGAGGAAGUUGUG [JMF's solution 39] (Eterna round: R96, puzzle: Same State NG 1) |  |  |  |  |  | apparent KD of MS2 coat protein (MS2 coat protein [2]; [6]): 28.2 nM |
| AUCCUACAUGAGGAUCACCCAUGUGACGCCUCAAUAGGAUAUCGGGCCCACAGUCAGGAACGAGAAGGAUUGAAGC [Digerier] (puzzle: Same State 1) |  |  |  |  |  | apparent KD of MS2 coat protein (MS2 coat protein [2]; Eterna round: R95, input ligand: FMN 200 uM): 67.5 nM; apparent KD of MS2 coat protein (MS2 coat protein [2]; Eterna round: R95, input ligand: microRNA oligo, concentration not stated): 29.3 nM; apparent KD of MS2 coat protein (MS2 coat protein [2]; Eterna round: R95, input ligand: none): 66.7 nM |
| CCGCUAAAUGGAGGAUAUGGAGCCUUAUUGGCUCCAGAAGGUCAAAACAUGAGGAUCACCCAUGUGCGGCGGUCUAAUGACCGA [Eli NG1ss - 48] (Eterna round: R96, puzzle: Same State NG 1) |  |  |  |  |  | apparent KD of MS2 coat protein (MS2 coat protein [2]; [6]): 122 nM |
